{
  "source": "patent US5972599",
  "key": {"IFN-gamma (Homo sapiens)": {"biological_target": "T1, IFN-gamma (Homo sapiens) (UniProt P01579)", "T1 sequence": "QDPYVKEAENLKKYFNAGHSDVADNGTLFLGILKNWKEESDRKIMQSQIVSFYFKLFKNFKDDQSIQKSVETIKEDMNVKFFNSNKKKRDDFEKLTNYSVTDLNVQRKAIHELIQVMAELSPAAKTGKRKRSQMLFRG", "test": "filter"}, "TNF-beta (Homo sapiens)": {"biological_target": "T2, TNF-beta (Homo sapiens) (UniProt P01374)", "T2 sequence": "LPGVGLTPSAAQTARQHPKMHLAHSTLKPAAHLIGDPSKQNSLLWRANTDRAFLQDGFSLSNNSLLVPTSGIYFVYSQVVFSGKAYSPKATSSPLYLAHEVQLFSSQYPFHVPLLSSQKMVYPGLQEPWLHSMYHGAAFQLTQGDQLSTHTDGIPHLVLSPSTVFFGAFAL", "test": "filter", "details": "specificity control"}, "TNF-alpha (Mus musculus)": {"biological_target": "T3, TNF-alpha (Mus musculus) (UniProt P06804)", "T3 sequence": "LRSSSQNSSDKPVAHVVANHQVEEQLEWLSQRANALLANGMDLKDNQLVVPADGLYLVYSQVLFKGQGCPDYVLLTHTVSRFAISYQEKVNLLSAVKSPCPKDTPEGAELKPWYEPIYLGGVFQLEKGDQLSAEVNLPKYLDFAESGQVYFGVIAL", "test": "filter", "details": "specificity control"}, "TNF-alpha (Homo sapiens) [1]": {"biological_target": "TNF-alpha (Homo sapiens) (UniProt P01375)", "sequence (P01375 77-233)": "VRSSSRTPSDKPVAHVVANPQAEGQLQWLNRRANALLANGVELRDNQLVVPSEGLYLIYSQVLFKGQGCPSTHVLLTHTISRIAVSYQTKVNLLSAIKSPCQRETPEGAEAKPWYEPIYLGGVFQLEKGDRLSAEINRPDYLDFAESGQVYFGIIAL", "test": "filter"}, "IL-4 (Homo sapiens)": {"biological_target": "T4, IL-4 (Homo sapiens) (UniProt P05112)", "T4 sequence": "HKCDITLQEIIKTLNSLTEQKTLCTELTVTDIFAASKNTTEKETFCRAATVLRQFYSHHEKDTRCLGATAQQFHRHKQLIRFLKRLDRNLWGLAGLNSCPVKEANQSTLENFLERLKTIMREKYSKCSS", "test": "filter"}, "IFN-gamma (Mus musculus)": {"biological_target": "T5, IFN-gamma (Mus musculus) (UniProt P01580)", "T5 sequence": "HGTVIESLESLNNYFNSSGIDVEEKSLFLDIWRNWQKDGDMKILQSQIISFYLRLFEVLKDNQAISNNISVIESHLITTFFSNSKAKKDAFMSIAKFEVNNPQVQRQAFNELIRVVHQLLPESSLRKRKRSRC", "test": "filter", "details": "mouse protein"}, "TNF-alpha (Homo sapiens) [2]": {"biological_target": "TNF-alpha (Homo sapiens) (UniProt P01375)", "test": "competition", "details": "random RNA control, U937 cells"}, "RANTES (Homo sapiens)": {"biological_target": "T6, RANTES (Homo sapiens) (UniProt P13501)", "T6 sequence": "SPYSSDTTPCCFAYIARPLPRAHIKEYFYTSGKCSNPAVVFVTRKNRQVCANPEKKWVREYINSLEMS", "test": "filter"}, "[3]": {"details": "2'-F all C and U, round 17 pool"}, "[4]": {"details": "2'-F all C, 2'-NH2 all U, round 17 pool"}, "[5]": {"details": "2'-NH2 all C and U, random pool"}, "[6]": {"details": "2'-F all C, 2'-NH2 all U, random pool"}},
  "data": [
    {"sequence": "GGGAGGACGAUGCGGNNNNNNNNNNNNNNNNNNNNNNNNNNNNNNNNNNNNNNNNCAGACGACUCGCCCGA [40N7 random pool 2'F]", "values": [
      {"measurement": "Kd", "setting": "IFN-gamma (Homo sapiens); 2'-F all C and U, random pool", "result": "> 0.7", "unit": "µM"}
    ]},
    {"sequence": "GGGAGCUCAGAAUAAACGCUCAANNNNNNNNNNNNNNNNNNNNNNNNNNNNNNUUCGACAUGAGGCCCGGAUCCGGC [TNF round 23 A-SELEX pool]", "values": [
      {"measurement": "Kd", "setting": "TNF-beta (Homo sapiens)", "result": "> 1000", "unit": "µM"},
      {"measurement": "Kd", "setting": "TNF-alpha (Mus musculus)", "result": "> 1000", "unit": "µM"},
      {"measurement": "Kd", "setting": "TNF-alpha (Homo sapiens) [1]; round 23A pool", "result": 0.7, "unit": "µM"}
    ]},
    {"sequence": "GGGAGCUCAGAAUAAACGCUCAANNNNNNNNNNNNNNNNNNNNNNNNNNNNNNUUCGACAUGAGGCCCGGAUCCGGC [TNF round 6 C-SELEX pool]", "values": [
      {"measurement": "Kd", "setting": "TNF-alpha (Homo sapiens) [1]; C-SELEX final pool", "result": 0.4, "unit": "µM"}
    ]},
    {"sequence": "GGGAGACAAGAAUAAACGCUCAANNNNNNNNNNNNNNNNNNNNNNNNNNNNNNNNNNNNNNNNUUCGACAGGAGGCUCACAACAGGC [IL-4 round 17 pool 2'F]", "values": [
      {"measurement": "Kd", "setting": "IL-4 (Homo sapiens); [3]", "result": 0.03, "unit": "µM"}
    ]},
    {"sequence": "GGGAGACAAGAAUAAACGCUCAANNNNNNNNNNNNNNNNNNNNNNNNNNNNNNNNNNNNNNNNUUCGACAGGAGGCUCACAACAGGC [IL-4 round 17 pool 2'F/NH2]", "values": [
      {"measurement": "Kd", "setting": "IL-4 (Homo sapiens); [4]", "result": 0.055, "unit": "µM"}
    ]},
    {"sequence": "GGGAGGACGAUGCGGNNNNNNNNNNNNNNNNNNNNNNNNNNNNNNNNNNNNNNNNCAGACGACUCGCCCGA [40N7 random pool 2'NH2]", "values": [
      {"measurement": "Kd", "setting": "IFN-gamma (Homo sapiens); [5]", "result": "> 0.7", "unit": "µM"}
    ]},
    {"sequence": "GGGAGACAAGAAUAAACGCUCAANNNNNNNNNNNNNNNNNNNNNNNNNNNNNNNNNNNNNNNNUUCGACAGGAGGCUCACAACAGGC [40N8 random pool 2'F]", "values": [
      {"measurement": "Kd", "setting": "IL-4 (Homo sapiens); 2'-F all C and U, random pool", "result": "> 20", "unit": "µM"}
    ]},
    {"sequence": "GGGAGGACGAUGCGGNNNNNNNNNNNNNNNNNNNNNNNNNNNNNNNNNNNNNNNNCAGACGACUCGCCCGA [IFN-gamma round 17 pool 2'F/NH2]", "values": [
      {"measurement": "Kd", "setting": "IFN-gamma (Mus musculus); 2'-F all C, 2'-NH2 all U", "result": 0.175, "unit": "µM"},
      {"measurement": "Kd", "setting": "IFN-gamma (Homo sapiens); [4]", "result": 0.115, "unit": "µM"}
    ]},
    {"sequence": "GGGAGCUCAGAAUAAACGCUCAANNNNNNNNNNNNNNNNNNNNNNNNNNNNNNUUCGACAUGAGGCCCGGAUCCGGC [TNF random RNA]", "values": [
      {"measurement": "Kd", "setting": "TNF-alpha (Homo sapiens) [1]; estimated, flat curves up to 10 uM protein", "result": "> 1000", "unit": "µM"},
      {"measurement": "Ki", "setting": "TNF-alpha (Homo sapiens) [2]", "result": "> 1000", "unit": "µM"}
    ]},
    {"sequence": "GGGAGACAAGAAUAAACGCUCAANNNNNNNNNNNNNNNNNNNNNNNNNNNNNNNNNNNNNNNNUUCGACAGGAGGCUCACAACAGGC [IL-4 round 17 pool 2'NH2]", "values": [
      {"measurement": "Kd", "setting": "IL-4 (Homo sapiens); 2'-NH2 all C and U, round 17 pool, high filter background, earlier round about 100 nM", "result": 1, "unit": "µM"}
    ]},
    {"sequence": "GGGAGGACGATGCGGNNNNNNNNNNNNNNNNNNNNNNNNNNNNNNNNNNNNNNNNCAGACGACTCGCCCGA [RANTES random ssDNA pool 40N7]", "values": [
      {"measurement": "Kd", "setting": "RANTES (Homo sapiens); starting pool, 150 mM NaCl", "result": 3, "unit": "µM"}
    ]},
    {"sequence": "GGGAGGACGATGCGGNNNNNNNNNNNNNNNNNNNNNNNNNNNNNNNNNNNNNNNNCAGACGACTCGCCCGA [RANTES round 19 ssDNA pool]", "values": [
      {"measurement": "Kd", "setting": "RANTES (Homo sapiens); round 19, 150 mM NaCl, text says 20 nM", "result": 0.018, "unit": "µM"}
    ]},
    {"sequence": "GGGAGACAAGAAUAAACGCUCAANNNNNNNNNNNNNNNNNNNNNNNNNNNNNNNNNNNNNNNNUUCGACAGGAGGCUCACAACAGGC [40N8 random pool 2'F/NH2]", "values": [
      {"measurement": "Kd", "setting": "IL-4 (Homo sapiens); [6]", "result": "> 20", "unit": "µM"}
    ]},
    {"sequence": "GGGAGGACGAUGCGGNNNNNNNNNNNNNNNNNNNNNNNNNNNNNNNNNNNNNNNNCAGACGACUCGCCCGA [IFN-gamma round 17 pool 2'F]", "values": [
      {"measurement": "Kd", "setting": "IFN-gamma (Mus musculus); 2'-F all C and U", "result": 0.41, "unit": "µM"},
      {"measurement": "Kd", "setting": "IFN-gamma (Homo sapiens); [3]", "result": 0.07, "unit": "µM"}
    ]},
    {"sequence": "GGGAGGACGAUGCGGNNNNNNNNNNNNNNNNNNNNNNNNNNNNNNNNNNNNNNNNCAGACGACUCGCCCGA [IFN-gamma round 17 pool 2'NH2]", "values": [
      {"measurement": "Kd", "setting": "IFN-gamma (Mus musculus); 2'-NH2 all C and U", "result": 0.085, "unit": "µM"},
      {"measurement": "Kd", "setting": "IFN-gamma (Homo sapiens); 2'-NH2 all C and U, round 17 pool", "result": 0.02, "unit": "µM"}
    ]},
    {"sequence": "GGGAGACAAGAAUAAACGCUCAANNNNNNNNNNNNNNNNNNNNNNNNNNNNNNNNNNNNNNNNUUCGACAGGAGGCUCACAACAGGC [40N8 random pool 2'NH2]", "values": [
      {"measurement": "Kd", "setting": "IL-4 (Homo sapiens); [5]", "result": "> 20", "unit": "µM"}
    ]},
    {"sequence": "GGGAGGACGAUGCGGNNNNNNNNNNNNNNNNNNNNNNNNNNNNNNNNNNNNNNNNCAGACGACUCGCCCGA [40N7 random pool 2'F/NH2]", "values": [
      {"measurement": "Kd", "setting": "IFN-gamma (Homo sapiens); [6]", "result": "> 0.7", "unit": "µM"}
    ]}
  ]
}
